Publication PMC5599985

Legend:
[1] = molecular target: biotinylated synthetic peptide containing the C-terminal 16 amino-acid residues of harmonin-a1 including the PBM; assay: SPR
[2] = molecular target: NTD-PDZ1 supramodule of harmonin-a1; assay: NMR titration
[3] = molecular target: PDZ2 domain of harmonin-a1 (amino acids 197-308); assay: NMR titration

“NTD-PDZ1 supramodule of harmonin-a1 (domain or fragment)” showed a Kd [1] of 61 µM.
Work on “synthetic peptide of the C-terminal 16 residues of harmonin-a1 (amino acids 533-548) including the PBM” yielded a Kd [2] of 51 µM and a Kd [3] of 375 µM.
